From the supplement of paper PMC12042874 come the findings set out here.

± gives the uncertainty stated by the source.

This series in a line: amyloid nucleation score (Sup35N fusion, yeast selection) (log enrichment); library NNK1; higher = more nucleation; inactive = no reads after selection. In short, it runs like this: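 The nucleation score equals the log enrichment of output over input reads from DiMSum, centred on the mode score of non-aggregating sequences. It was computed only for sequences with 100 or more input reads. The reads came from Illumina sequencing of plasmid inserts from psi-negative yeast expressing Sup35N fused to peptides of 20 random codons, induced with 100 μM copper sulfate for 24 hours and grown 7 days at 30°C without adenine and uracil.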
Regarding GLTINNSI, the amyloid nucleation score worked out at 0.588 ± 0.38.
As for IKDNITGKSSYGM, the figure is 0.418 ± 0.32.
As for WTMLDMFLFS, the figure is -0.872 ± 0.42.
With HFWLDARSRAKKPAQGIIKG, the amyloid nucleation score is -0.426 ± 0.34.
Under SWVGRAVVEYSARARASTES stands -0.327 ± 0.33.
In the case of GHPVWRCFSDGSSPLFWDYG, the amyloid nucleation score result was “inactive”.
Under LLITNGMSNDGNQCSS stands “inactive”; under CGFALSRQVDILILLADSYD, 0.167 ± 1.1.
As for WNQADGIS, the figure is -1.66 ± 2.4.
In turn, SASGAWSGWPHRKVGYGSSL came in with an amyloid nucleation score of 0.664 ± 0.36.
The substance LWNCKIVVWSFIGSVCTTGK gave an amyloid nucleation score of 2.29 ± 0.19.
As for TSPDCKAAKSQGSKCRDRSC, the figure is -0.495 ± 0.62; as for MYTSRQNSARNRKLNSIAGF, -0.721 ± 0.77.
As for NIGMGSTLFLGRMSEQCWCS, the figure is 2.32 ± 0.14; as for VRSRLLQNLSDIPNQPIRWD, -0.105 ± 0.33.
As for VSCIV, the figure is 0.198 ± 0.58; as for YWEGWGKTRFKCNGSRSRAG, -1.01 ± 1.3.
Turning to PMFWRYILFSANNEPQFIRQ, the amyloid nucleation score came out at 0.073 ± 0.24.
Under ARGYAGVRRLVGYR stands 0.133 ± 0.56; under YFLTHRTGRYNMGDSSVRTL, -0.319 ± 0.38.
As for VAQLFHWADLYNTSYYVSCV, the figure is 3.38 ± 0.089.
As for FSGVTMR, the figure is 1.7 ± 0.32.
In the case of WPNTPSVTKWTYLFVLHPRM, the amyloid nucleation score is -0.854 ± 0.95.
As for KVIFYEFPTSQRFMGSMYDM, the figure is 1.88 ± 0.19; as for RIRNSEAGMLYTLYVTRLVD, -0.007 ± 0.31.
Under NILGIAHTIGCLLLTFCCTL stands “inactive”.
Under AISAYELSRIRVQS stands 0.487 ± 0.55.
In turn, FNWLTVSAFHQHRTLTMNMY showed an amyloid nucleation score of 0.216 ± 0.3.
As for FTVLVELALFMRSCLSRGFN, the amyloid nucleation score is -0.261 ± 0.27.
As for IYGTGFIWMFSVPKLERG, the figure is -0.537 ± 1.1; as for APRYHAVFLLII, -0.505 ± 0.79; as for CWVHQNNCADVGATGEQSHR, -0.029 ± 0.51.
Consider ASLAIGFSIKSHYVMCRVYP, for which the amyloid nucleation score was 0.42 ± 0.35.
As for RSEGRRGRFNMWSLAFGDVP, the figure is -0.218 ± 0.3; as for FMYTDPDSVPQGSDTTSLAL, -0.129 ± 0.46; as for AECLDPMNAVTVCRGSWL, 0.101 ± 0.35.
Under QCCLNVLDC stands 7.65 ± 0.084; under SWCRGLEVQWLRCIFRM, 0.274 ± 0.69; under DCYREVSYFKFQNTKGSGSW, 3.33 ± 0.14.
Under RWPVFNSCLSSSPRRAEYRY stands 0.616 ± 0.59; under MRISFAITCTVTN, 0.248 ± 0.28.
The substance SYHLLMHMGIGQTLYKTRYD gave an amyloid nucleation score of 1.98 ± 0.21.
Under RCCKQTSRVDMC stands 0.156 ± 1.6; under SVNFRYPWCFTVGGMTVLLQ, 0.007 ± 0.73.
As for ENDVNDLRSPLDNQYLSRLP, the entry is “inactive”.
Turning to FLLLCRSFFSARTILRCTMV, the amyloid nucleation score came out at 0.631 ± 0.89.
As for CGHMR, the figure is 0.327 ± 0.33; as for QGLGALMVRSFSFYLFVW, -0.241 ± 1.4; as for LSVIIII, 4.96 ± 0.051.
Under GGFIR stands -0.516 ± 1.1; under GNWTGGYCVCGRQSSLIVVE, -0.016 ± 1.7.
Turning to VHIPHDCISAIVFRSSAAIS, the amyloid nucleation score is -0.331 ± 0.49.
Under RSNYVDVSGLSYGGLIAL stands “inactive”; under SDDRLATCTFCLYSRIKQVK, -0.651 ± 1.7.
Under NFTNFW stands -0.732 ± 0.56.
As for SERTMMSDKLSKRSLPCSLR, the figure is -0.717 ± 0.63; as for QSGGVRVTNWRGNVTAT, 0.043 ± 0.39; as for MGFQFNTFCF, 8.144 ± 0.062.
TSGSGINITL: the amyloid nucleation score result is “inactive”.
As to IAPMSRRFEGMACSFTDEEA, the amyloid nucleation score result is “inactive”.
Under NFPKYGFQGVFRTPMWYGFF stands -1.63 ± 1.1; under SKLMTRVTVWLGSYGRGSWH, 0.629 ± 0.83; under ANRNDCTQFTDSK, -0.41 ± 0.27.
As for LTVMMLGFGHVQCMS, the figure is -0.003 ± 0.26.
As for IGPLYRFCMLNMRFGAGSLN, the figure is 0.428 ± 0.84; as for QISNRYPLVRPTLLFCGFPF, -0.224 ± 0.4.
For EAGNTDSAINGVRAKDGS, the amyloid nucleation score turned out to be 1.15 ± 0.69.
Under VFLIDLLLTMCFFLYGAFLV stands 0.76 ± 1.1; under DSVYRLFICIVISALTGWWK, 0.258 ± 0.62; under NGRTLINQYESLEATGICTV, 0.684 ± 0.78.
Under PTGSYKAGSSSSLVYPFED stands -0.062 ± 0.52.
As for VSNSWAWPFRRNCGSECWFT, the figure is 0.228 ± 0.33.
In turn, MDRALQRSWRLGLRPGEGGS registered an amyloid nucleation score of -0.455 ± 0.62.
Under IPVVVV stands 0.014 ± 0.24; under RVYYLMDLIACCPYSLGHRN, 8.606 ± 0.051; under DEGRSTQSVVCLVMEVNSDR, 0.411 ± 0.48.
Under NLSLRLFVSLSLIMTVMRVP stands -0.127 ± 0.4.
Take LKHPDIYRKVERKVRVNMFF: the amyloid nucleation score was -0.792 ± 0.31.
Under LCNLGMLRLSGMENRINRVG stands 1.29 ± 0.6; under EGRPECKARLSRYGRCRMNG, 0.447 ± 0.48.
Regarding YTYTQTFLV, the amyloid nucleation score is -0.255 ± 0.47.
Under FRSGTHWSMDFGHAKEIRR stands 1.39 ± 0.14; under WLYMRGPKVVRSCREITARA, 0.413 ± 1.4; under LNNAGTFFLPEVFRLRWTNV, 0.018 ± 0.93.
Under LKLGYMNLLISDRCAVIERY stands 0.969 ± 0.81; under LDIDTKW, -0.204 ± 0.38.
As for GHRTWRLITAIDA, the figure is 0.088 ± 0.4; as for YASCCTDCNWLCFFRRLREA, 7.041 ± 0.054.
The substance KLMVWITFGSWSRVGHWKGI had an amyloid nucleation score of -0.387 ± 1.2.
As for PEDFHNLFLKINGYLSYAFV, the figure is -1.54 ± 1.1; as for RGPLVFYLFTFWLCDRGNVL, 0.046 ± 0.58; as for RERESQMYFNLFSENTY, -0.435 ± 0.51.
Under TWSLLNIVYMSN stands 0.867 ± 0.39; under VDSSRRDVCDGDT, 0.104 ± 0.48; under VSWYSSVIKL, “inactive”.
Substance NLKVESPGNGSWICTLEWVW had an amyloid nucleation score of 6.645 ± 0.054.
Under MFFVFSYSRS stands 1.52 ± 0.28; under NLLTMDIERTGECIDFWVD, 0.008 ± 0.38.
Under YCQCVCFSAMYSKTSRLNMG stands 6.744 ± 0.066.
Substance LGRGRKSTMVSQRVERAGVC gave an amyloid nucleation score of -0.626 ± 0.58.
As for HHGRFRCKAVCRRKCGLVQV, the amyloid nucleation score entry is “inactive”.
Consider VLMVPWVDGSCSS, for which the amyloid nucleation score is -1.06 ± 1.3.
